# According to patent US20200024330A1:
# Numbering of substitutions follows the chain as printed.
# B1: PGT-126 monoclonal antibody (antibody, V domains shown)
# VH: QPQLQESGPGLVEASETLSLTCTVSGDSTAACDYFWGWVRQPPGKGLEWIGGLSHCAGYYNTGWTYHNPSLKSRLTISLDTPKNQVFLKLNSVTAADTAIYYCARFDGEVLVYHDWPKPAWVDLWGRGTLVTVSS
# VL: QSALTQPPSASGSPGQSISISCTGTSNRFVSWYQQHPGKAPKLVIYGVNKRPSGVPDRFSGSKSGNTASLTVSGLQTDDEAVYYCSSLVGNWDVIFGGGTKLTVL
# B2: PGT-125 monoclonal antibody (antibody, V domains shown)
# VH: QSQLQESGPRLVEASETLSLTCNVSGESTGACTYFWGWVRQAPGKGLEWIGSLSHCQSFWGSGWTFHNPSLKSRLTISLDTPKNQVFLKLTSLTAADTATYYCARFDGEVLVYNHWPKPAWVDLWGRGIPVTVSS
# VL: QSALTQPPSASGSPGQSITISCNGTATNFVSWYQQFPDKAPKLIIFGVDKRPPGVPDRFSGSRSGTTASLTVSRLQTDDEAVYYCGSLVGNWDVIFGGGTTLTVL
# B3: PGT-136 monoclonal antibody (antibody, V domains shown)
# VH: QLQLQESGPGLVKPSETLSLTCTVSGGSMRGTDWGENDFHYGWIRQSSAKGLEWIGSIHWRGRTTHYKTSFRSRATLSIDTSNNRFSLTFSFVTAADTAVYYCARHKYHDIFRVVPVAGWFDPWGQGLLVTVSS
# VL: EIVMTQSPPTLSVSPGETATLSCRASQNVKNNLAWYQLKPGQAPRLLIFDASSRAGGIPDRFSGSGYGTDFTLTVNSVQSEDFGDYFCQQYEEWPRTFGQGTKVDIK
# B4: PGT-135 monoclonal antibody (antibody, V domains shown)
# VH: QLQMQESGPGLVKPSETLSLSCTVSGDSIRGGEWGDKDYHWGWVRHSAGKGLEWIGSIHWRGTTHYKESLRRRVSMSIDTSRNWFSLRLASVTAADTAVYFCARHRHHDVFMLVPIAGWFDVWGPGVQVTVSS
# VL: EIVMTQSPDTLSVSPGETVTLSCRASQNINKNLAWYQYKPGQSPRLVIFETYSKIAAFPARFVASGSGTEFTLTINNMQSEDVAVYYCQQYEEWPRTFGQGTKVDIK
# B5: PGT-130 monoclonal antibody (antibody, V domains shown)
# VH: QVQLQESGPGLVKPAETLSLTCSVSGESINTGHYYWGWVRQVPGKGLEWIGHIHYTTAVLHNPSLKSRLTIKIYTLRNQITLRLSNVTAADTAVYHCVRSGGDILYYYEWQKPHWFSPWGPGIHVTVSS
# VL: QSALTQPPSASGSLGQSVTISCNGTSSDIGGWNFVSWYQQFPGRAPRLIIFEVNKRPSGVPGRFSGSKSGNSASLTVSGLQSDDEGQYFCSSLFGRWDVVFGGGTKLTVL
# B6: PGT-123 monoclonal antibody (antibody, V domains shown)
# VH: QLHLQESGPGLVKPPETLSLTCSVSGASINDAYWSWIRQSPGKRPEWVGYVHHSGDTNYNPSLKRRVTFSLDTAKNEVSLKLVDLTAADSATYFCARALHGKRIYGIVALGELFTYFYMDVWGKGTAVTVSS
# VL: SSMSVSPGETAKISCGKESIGSRAVQWYQQKPGQPPSLIIYNNQDRPAGVPERFSASPDFRPGTTATLTITNVDAEDEADYYCHIYDARGGTNWVFDRGTTLTVL
# B7: 1503_H05 (PG16) (TCN-119) (antibody, V domains shown)
# VH: QEKLVESGGGVVQPGGSLRLSCLASGFTFHKYGMHWVRQAPGKGLEWVALISDDGMRKYHSDSMWGRVTISRDNSKNTLYLQFSSLKVEDTAMFFCAREAGGPIWHDDVKYYDFNDGYYNYHYMDVWGKGTIVTVSS
# VL: QSALTQPASVSGSPGQTITISCNGTRSDVGGFDSVSWYQQSPGKAPKVMVFDVSHRPSGISNRFSGSKSGNTASLTISGLHIEDEGDYFCSSLTDRSHRIFGGGTKVTVLG
# B8: 1456_A12 (PG16) (TCN-117) (antibody, V domains shown)
# VH: B7 VH with Q1H, K3Q, S7A, K87R, I132K
# VL: B7 VL with R26S, S27R, I60M, V107L
# Biological target: HIV-1 MGRM-D-001 envelope glycoprotein (Env) on pseudovirus (HIV-1)
# Experiment: cell-based or functional assay
row,Binder,"IC50, pseudovirus neutralization"
1,B1,0.0639 µg/mL
2,B2,2.31 µg/mL
3,B3,> 10 µg/mL
4,B4,> 10 µg/mL
5,B5,> 10 µg/mL
6,B6,0.215 µg/mL

# Biological target: HIV-1 Env of isolate PVO.4 (HIV-1)
# Experiment: cell-based or functional assay
row,Binder,"IC50, pseudovirus neutralization (TZM-bl)"
1,B7,11 µg/mL
2,B8,10.4 µg/mL

# Biological target: HIV-1 Env of isolate CAAN (HIV-1)
# Experiment: cell-based or functional assay
row,Binder,"IC50, pseudovirus neutralization (TZM-bl)"
1,B7,13.5 µg/mL
2,B8,10.6 µg/mL

# Biological target: HIV-1 JR-CSF Env I309A (pseudovirus) (HIV-1 JR-CSF) (UniProt P20871)
# Experiment: cell-based or functional assay
row,Binder,"IC50 (ug/ml), neutralization"
1,B7,> 1 µg/mL
2,B8,> 1 µg/mL

# Biological target: HIV-1 JR-FL Env E168K (pseudovirus) (HIV-1 JR-FL)
# Experiment: cell-based or functional assay
row,Binder,"IC50 (ug/ml), neutralization"
1,B7,0.002 µg/mL
2,B8,0.003 µg/mL

# Biological target: aMLV envelope protein on pseudovirus (negative control virus)
# Experiment: cell-based or functional assay
row,Binder,"IC50, pseudovirus neutralization"
1,B1,> 10 µg/mL
2,B2,> 10 µg/mL
3,B3,> 10 µg/mL
4,B4,> 10 µg/mL
5,B5,> 10 µg/mL
6,B6,> 10 µg/mL

# Biological target: HIV-1 JR-CSF Env, wild type (pseudovirus) (HIV-1 JR-CSF) (UniProt P20871)
# Experiment: cell-based or functional assay
row,Binder,"IC50 (ug/ml), neutralization"
1,B7,0.001 µg/mL
2,B8,0.001 µg/mL

# Biological target: HIV-1 MGRM-D-018 envelope glycoprotein (Env) on pseudovirus (HIV-1)
# Experiment: cell-based or functional assay
row,Binder,"IC50, pseudovirus neutralization"
1,B1,0.0093 µg/mL
2,B2,0.0382 µg/mL
3,B3,> 10 µg/mL
4,B4,0.0433 µg/mL
5,B5,0.0378 µg/mL
6,B6,0.0047 µg/mL

# Biological target: HIV-1 Env of isolate ZM214 (HIV-1)
# Experiment: cell-based or functional assay
row,Binder,"IC50, pseudovirus neutralization (TZM-bl)"
1,B7,> 25 µg/mL
2,B8,> 25 µg/mL

# Biological target: HIV-1 Env of isolate Du172 (HIV-1)
# Experiment: cell-based or functional assay
row,Binder,"IC50, pseudovirus neutralization (TZM-bl)"
1,B7,< 0.01 µg/mL
2,B8,< 0.01 µg/mL

# Biological target: HIV-1 Env of isolate CAP45 (HIV-1)
# Experiment: cell-based or functional assay
row,Binder,"IC50, pseudovirus neutralization (TZM-bl)"
1,B7,< 0.01 µg/mL
2,B8,< 0.01 µg/mL

# Biological target: HIV-1 CMU02 envelope glycoprotein (Env) on pseudovirus (HIV-1)
# Experiment: cell-based or functional assay
row,Binder,"IC50, pseudovirus neutralization"
1,B1,> 10 µg/mL
2,B2,> 10 µg/mL
3,B3,> 10 µg/mL
4,B4,> 10 µg/mL
5,B5,> 10 µg/mL
6,B6,> 10 µg/mL

# Biological target: HIV-1 MGRM-AG-005 envelope glycoprotein (Env) on pseudovirus (HIV-1)
# Experiment: cell-based or functional assay
row,Binder,"IC50, pseudovirus neutralization"
1,B1,1.35 µg/mL
2,B2,> 10 µg/mL
3,B3,> 10 µg/mL
4,B4,> 10 µg/mL
5,B5,0.947 µg/mL
6,B6,0.104 µg/mL

# Biological target: HIV-1 Env of isolate THRO.18 (HIV-1)
# Experiment: cell-based or functional assay
row,Binder,"IC50, pseudovirus neutralization (TZM-bl)"
1,B7,4.12 µg/mL
2,B8,2.08 µg/mL

# Biological target: HIV-1 ADA Env (pseudovirus) (HIV-1 ADA)
# Experiment: cell-based or functional assay
row,Binder,"IC50 (ug/ml), neutralization"
1,B7,0.003 µg/mL
2,B8,0.005 µg/mL

# Biological target: HIV-1 Env of isolate DU422 (HIV-1)
# Experiment: cell-based or functional assay
row,Binder,"IC50, pseudovirus neutralization (TZM-bl)"
1,B7,0.71 µg/mL
2,B8,0.36 µg/mL

# Biological target: HIV-1 Env of isolate AC10 (HIV-1)
# Experiment: cell-based or functional assay
row,Binder,"IC50, pseudovirus neutralization (TZM-bl)"
1,B7,< 0.01 µg/mL
2,B8,< 0.01 µg/mL

# Biological target: HIV-1 92RW020 Env (pseudovirus) (HIV-1 92RW020)
# Experiment: cell-based or functional assay
row,Binder,"IC50 (ug/ml), neutralization"
1,B7,0.02 µg/mL
2,B8,0.05 µg/mL

# Biological target: HIV-1 92TH021 envelope glycoprotein (Env) on pseudovirus (HIV-1)
# Experiment: cell-based or functional assay
row,Binder,"IC50, pseudovirus neutralization"
1,B1,0.115 µg/mL
2,B2,0.0066 µg/mL
3,B3,> 10 µg/mL
4,B4,> 10 µg/mL
5,B5,0.0082 µg/mL
6,B6,> 10 µg/mL

# Biological target: HIV-1 Env of isolate REJ04541 (HIV-1)
# Experiment: cell-based or functional assay
row,Binder,"IC50, pseudovirus neutralization (TZM-bl)"
1,B7,0.22 µg/mL
2,B8,< 0.01 µg/mL

# Biological target: HIV-1 92UG005 envelope glycoprotein (Env) on pseudovirus (HIV-1)
# Experiment: cell-based or functional assay
row,Binder,"IC50, pseudovirus neutralization"
1,B1,0.0181 µg/mL
2,B2,> 10 µg/mL
3,B3,> 10 µg/mL
4,B4,> 10 µg/mL
5,B5,0.474 µg/mL
6,B6,2.49 µg/mL

# Biological target: HIV-1 Env of isolate TR0.11 (HIV-1)
# Experiment: cell-based or functional assay
row,Binder,"IC50, pseudovirus neutralization (TZM-bl)"
1,B7,4.3 µg/mL
2,B8,3.05 µg/mL

# Biological target: HIV-1 Env of isolate ZM233 (HIV-1)
# Experiment: cell-based or functional assay
row,Binder,"IC50, pseudovirus neutralization (TZM-bl)"
1,B7,< 0.01 µg/mL
2,B8,< 0.01 µg/mL

# Biological target: HIV-1 92UG024 envelope glycoprotein (Env) on pseudovirus (HIV-1)
# Experiment: cell-based or functional assay
row,Binder,"IC50, pseudovirus neutralization"
1,B1,> 10 µg/mL
2,B2,> 10 µg/mL
3,B3,0.0915 µg/mL
4,B4,0.0139 µg/mL
5,B5,> 10 µg/mL
6,B6,> 10 µg/mL

# Biological target: HIV-1 Env of isolate DU156 (HIV-1)
# Experiment: cell-based or functional assay
row,Binder,"IC50, pseudovirus neutralization (TZM-bl)"
1,B7,< 0.01 µg/mL
2,B8,< 0.01 µg/mL

# Biological target: HIV-1 JR-CSF Env Y318A (pseudovirus) (HIV-1 JR-CSF) (UniProt P20871)
# Experiment: cell-based or functional assay
row,Binder,"IC50 (ug/ml), neutralization"
1,B7,> 1 µg/mL
2,B8,> 1 µg/mL

# Biological target: HIV-1 Env of isolate ZM249 (HIV-1)
# Experiment: cell-based or functional assay
row,Binder,"IC50, pseudovirus neutralization (TZM-bl)"
1,B7,< 0.01 µg/mL
2,B8,< 0.01 µg/mL

# Biological target: MuLV envelope protein (control pseudovirus) (MuLV)
# Experiment: cell-based or functional assay
row,Binder,"IC50, pseudovirus neutralization (TZM-bl), control virus"
1,B7,> 25 µg/mL
2,B8,> 25 µg/mL
